Reference: the supplement of paper PMC9732359
± gives the uncertainty stated by the source.

Experiment: protein stability index of a GFP-peptide fusion (yeast GPS) (PSI 1-4); higher = more stable; sorted into four equal gates, so the index is relative within each strain
Outline: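 Tiled 17-residue yeast protein peptides were fused downstream of GFP in a plasmid that also expresses Cherry, and the pooled library was carried in yeast. Mid-log cultures in leucine-free medium were sorted into four equal gates by GFP/Cherry fluorescence ratio, and plasmids from each gate were PCR-amplified and Illumina-sequenced, with reads assigned to strains by barcodes. The protein stability index for each peptide was each gate's read frequency times its gate number, summed.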

Row | Sequence | protein stability index (doa10∆) | protein stability index (pdr5∆) | protein stability index (san1∆) | protein stability index (ubr1∆)
1 | NQLVEPNRIKLSKEVPF [SRB5] | 2.42 ± 0.038 | 2.44 ± 0.037 | 2.46 ± 0.042 | 2.23 ± 0.025
2 | GRNRGRPNRRGPRNTEE [RPS2] | 3.38 ± 0.069 | 3.24 ± 0.16 | 3.58 ± 0.1 | 3.45 ± 0.083
3 | DFHFSTDRITRLFIKPG [BRN1] | 2.33 ± 0.058 | 2.6 ± 0.046 | 2.16 ± 0.089 | 2.67 ± 0.048
4 | VFMLDTKRLGTPESVKP [RGR1] | 2.55 ± 0.075 | 2.64 ± 0.091 | 2.54 ± 0.11 | 2.8 ± 0.086
5 | LQIGDVVERHLEDGDVV [RPO31] | 3.38 ± 0.088 | 3.43 ± 0.095 | 3.49 ± 0.069 | 3.39 ± 0.098
6 | VAALALLFAINSYQPSP [SMC1] | 1.62 ± 0.059 | 1.55 ± 0.073 | 1.89 ± 0.11 | 2.42 ± 0.055
7 | EKKAASAKQTAPNNSNG [MED7] | 2.94 ± 0.15 | 3 ± 0.13 | 2.95 ± 0.14 | 2.41 ± 0.24
8 | QKVLNAHRQRAMEARSS [SMC4] | 1.95 ± 0.12 | 2.36 ± 0.15 | 1.98 ± 0.15 | 1.32 ± 0.073
9 | QLFNWCLMRSLHKLELK [DSN1] | 1.17 ± 0.058 | 1.26 ± 0.059 | 1.14 ± 0.13 | 1.19 ± 0.058
10 | FKGVIVKIVDKDGIRQV [PRE1] | 2.26 ± 0.18 | 3.11 ± 0.19 | 3.16 ± 0.23 | 3.13 ± 0.092
11 | EVTEEQAEATEWAEENA [RPS0A] | 3.48 ± 0.13 | 3.51 ± 0.1 | 2.99 ± 0.13 | 3.62 ± 0.095
12 | SENRDKFLQEFINLLLN [IRR1] | 2.53 ± 0.069 | 2.07 ± 0.083 | 2.43 ± 0.076 | 2.21 ± 0.069
13 | FAQGKRRYDRKQSGFGG [RPL42A] | 3.6 ± 0.25 | 3.57 ± 0.28 | 3.06 ± 0.29 | 3.34 ± 0.061
14 | LRLRISRKRNEEEDAKN [RPL31A] | 1.72 ± 0.17 | 2.39 ± 0.17 | 3.35 ± 0.16 | 2.32 ± 0.14
15 | RALRIETGNFSWASEGI [RPS8A] | 3.15 ± 0.036 | 3.15 ± 0.037 | 3.11 ± 0.027 | 3.052 ± 0.026
16 | NLNDKFGIYILTQGING [MED1] | 1.54 ± 0.04 | 1.47 ± 0.032 | 1.6 ± 0.096 | 1.43 ± 0.031
17 | EDNKYAIAGNSTTNSDV [RGR1] | 2.89 ± 0.13 | 2.92 ± 0.12 | 2.99 ± 0.06 | 2.93 ± 0.08
18 | VTQSNILSQQFDKIIKI [SRB8] | 2.72 ± 0.07 | 2.96 ± 0.071 | 2.95 ± 0.056 | 2.89 ± 0.045
19 | GSIPVDQVVVRGIDTLQ [RPB3] | 2.14 ± 0.06 | 2.02 ± 0.076 | 1.89 ± 0.099 | 2.5 ± 0.048
20 | FHSTYLMNGVKPFKSFL [FAS1] | 2.65 ± 0.12 | 2.55 ± 0.078 | 3.33 ± 0.15 | 2.87 ± 0.068
21 | GIEHFDIPPPAIMKPYY [RPO31] | 2.69 ± 0.15 | 2.92 ± 0.084 | 3.34 ± 0.13 | 2.91 ± 0.099
22 | LKGLNGFPSAPQPLFME [YMR153W/NUP53] | 2.53 ± 0.067 | 3.04 ± 0.066 | 2.85 ± 0.067 | 2.69 ± 0.062
23 | AADTSIVEQDKSMELFY [YJL039C/NUP192] | 2.07 ± 0.11 | 2.61 ± 0.13 | 2.63 ± 0.084 | 2.73 ± 0.2
24 | LPIYDSLMSSQNKLFYI [SIR3] | 2.15 ± 0.14 | 2.01 ± 0.14 |  | 1.38 ± 0.093
25 | NLSLYEATAASHERFFL [CSN12] | 2.35 ± 0.065 | 2.73 ± 0.072 | 2.08 ± 0.12 | 2.62 ± 0.065
26 | ARSIDVEKGVNPTKSKE [ECM29] | 3.32 ± 0.26 | 3.51 ± 0.24 |  | 3.2 ± 0.29
